Measured values: the Human Domainome abundance scans (Beltran et al. 2025)

B1: Max-interacting protein 1, residues 70 to 120; numbered along this chain, P50539 (parent)
chain: STHNELEKNRRAHLRLCLERLKVLIPLGPDCTRHTTLGLLNKAKAHIKKLE

Variants of: B1
Assay: abundance fitness (aPCA) (normalised: wild type 0, dead -1); higher = more abundant; growth selection in yeast, the domain comes from the species named
Conditions: Homo sapiens

Abundance fitness of substitutions, site by site:
T36: R -0.19, H -0.176, K -0.091, P -0.107, D -0.705, F 0.155, A 0.138, C 0.085, N -0.183, E -0.487, L -0.106, Q -0.199, I -0.028, S -0.132, G 0.134, V 0.308
P26: E -0.138, H 0.017, Q 0.144, V -0.628, D -0.327, M 0.074, W -0.525, C -0.157, S 0.193, L -0.326, G 0.278, I -1.18, Y -0.626, T 0.369, K 0.441, F -0.557, N 0.063
T35: G -0.031, Q -0.176, K 0.218, D -0.377, A 0.213, P -0.103, W 0.189, F 0.198, R 0.225, L -0.017, Y 0.279, C 0.019, E -0.508, S 0.025, V 0.057, H -0.023
L24: Q -0.569, G -0.461, T -0.455, H -0.139, F -0.277, R 0.013, K -0.294, D -1, N -0.715, E -0.751, I 0.137, S -0.391, C -0.013, V -0.193, P -0.938, A -0.329, W 0.244, M -0.292
C31: N 0.185, Y -0.13, I 0.167, K 0.334, D -0.136, R 0.203, A 0.106, G 0.027, H 0.308, S 0.168, E -0.206, P 0.053, W 0.19, Q 0.072, M -0.087, V 0.145, F 0.007, T -0.034, L 0
G38: K 0.081, M 0.118, E -0.185, C -0.229, F -0.584, Y -0.546, I -0.486, V -0.242, L -0.326, S -0.087, R -0.009, W -0.265, A -0.055, H -0.168, T -0.069
L21: R -1.05, Q -0.495, M -0.358, C -0.503, W -0.594, N -1.17, S -0.915, E -0.931, K -0.739, A -0.547, P -0.978, G -0.957, H -0.335, D -1.23, V -0.669, F -0.398, T -0.832, I -0.144
H34: D -0.457, L 0.081, G 0.114, C -0.063, T -0.103, N 0.052, I -0.225, Y -0.406, S 0.047, W 0.017, K 0.39, R 0.264, V 0.019, P -0.318, Q -0.028
P29: C 0.181, T 0.177, R 0.216, M 0.282, K 0.44, V 0.401, W 0.519, N -0.106, F 0.413, H 0.262, E -0.296, G -0.119, D -0.387, Q 0.028, A 0.466, I 0.506, L 0.533, S 0.359, Y 0.256
T32: D -0.387, V 0.341, R -0.137, K -0.239, E -0.354, I 0.139, M 0.546, P -0.303, A 0.163, C 0.268, G 0.012, N -0.389, S -0.109, Q -0.112, W 0.033, L 0.374, H -0.168, Y -0.174
D30: Y -0.007, F 0.036, C -0.07, W 0.034, H 0.031, S 0.279, A 0.095, R 0.178, I 0.151, T 0.128, K 0.213, L 0.183, E -0.134, Q 0.147, N 0.229, M 0.118, P 0.128, G 0.178, V 0.223
E19: Y -0.79
V23: L 0.128, D -0.127, M 0.064, T 0.274, S 0.317, Q 0.123, N 0.313, R 0.316, E 0.096, F -0.191, G 0.355, Y -0.062, H 0.455, K 0.547, A 0.488, I -0.218, C 0.287
R33: K -0.117, P -0.225, G -0.257, Q -0.116, N -0.372, A -0.338, M -0.394, F -0.129, S -0.44, E -0.667, W -0.075, Y -0.107, H -0.247, V -0.293, D -0.644, T -0.576, L -0.438, C -0.365, I -0.691
L37: Q -0.154, Y -0.172, H -0.399, S 0.06, V -0.023, T 0.042, E -0.344, D -0.375, N -0.292, K 0.073, C -0.244, P -0.624, R 0.253, A -0.026, G -0.107, F 0.105, M -0.124, W 0.125
K22: F -0.759, C -0.871, L -0.639, N -0.572, G -0.611, I -1.21, V -0.926, T -0.835, A -0.903, Y -0.884, P -0.757, W -1.08, S -0.536, H -0.651, D -0.83, R -0.121, Q -1.02, E -0.885, M -0.753
G28: W 0.199, Y 0.133, C -0.155, H -0.147, M 0.074, L -0.142, F 0.069, P -0.015, Q -0.092, I 0.402, E -0.38, V 0.273, R 0.122, K 0.362, S 0.003, A -0.284
L39: D -1.11, C -0.588, E -0.597, A -0.704
L27: M -0.031, H -0.146, R 0.308, E -0.423, S 0.166, T 0.074, G 0.18, Y -0.39, Q -0.149, I -0.004, A -0.006, C -0.573, D -0.512, P 0.359, V -0.009
I25: A -0.584, S -0.39, G -0.26, F -0.141, W 0.319, N 0.169, T -0.562, C 0.045, E -0.384, P -0.334, L -0.172, Y -0.309, K -0.995, H -0.744, M -0.228, R -0.521, Q -0.561, V -0.062, D -0.852
R20: I -1.11, H -0.726, Q -0.405, E -0.929, G -0.817, Y -0.884, T -0.377, P -0.753, V -0.797, S -0.576, A -0.677, F -0.971, D -1.17, M -1, W -0.912, N -0.335
